Where a chain is given by its changes, count along the chain named. In names and notes the source's numbering stands. Where two headings read alike, the source gives them in different places.

One data set has as its target Avd. On the set-up: method as in PMID 17052607. The settings on record: read-out: Kd of Avd-HABA complex; cited from earlier work.
Data set [1] can be described thus: Fluorometric assay: quenching of intrinsic protein fluorescence by unconjugated ligand. It is filed as binding. The settings on record: 100 nM protein, pH 7, 25°C, read-out: Kd for progesterone. On the procedure:
The binding affinity of the unconjugated small molecules to antidins was determined utilizing the intrinsic fluorescence originating from the aromatic amino acid residues (mainly tryptophan and tyrosine) of Avd and the fluorescence quenching caused by ligand binding. In brief, 100 nM protein samples in 50 mM NaH2PO4/Na2HPO4, 650 mM NaCl, pH 7 were excited at 280 nm, and emission was collected at 350 nm using QuantaMaster Spectrofluorometer (Photon Technology International, Inc.) with 2 nm slits. The assay was performed in a quartz cuvette with stirring at 25°C. The ligand was added to the protein sample in small aliquots (6–50 000 nM) and the fluorescence intensity was monitored after a short incubation. The dissociation constant (Kd) was determined from the resulting quenching curve using GraphPad Prism (GraphPad Software, Inc.). The data were fitted to a quadratic equation [72] for tight binding interactions, which takes ligand depletion and nonspecific binding into account (described in detail in [38]) (Fig 6).

Data set [2] deals with the molecule itself. In words: SEC; Superdex200 Increase 5/150GL, 50 mM sodium phosphate, 650 mM NaCl, pH 7, 0.1 ml/min, 20°C; molecular weight from a standard curve of elution volumes of markers. On the technique in general: In gel filtration, larger molecules generally elute earlier.
On the set-up of data set [3]: method as in PMID 26550684. The settings on record: fluorometry-based assay, non-conjugated ligand, earlier study; read-out: Kd for progesterone; cited from earlier work.
A short description of data set [4]: Differential scanning calorimetry, no ligand. The settings on record: DSC, absence of ligand, 6.4 μM protein, pH 7. The data set is classed as physicochemical. The procedure:
(§1) The thermal stability of the antidin sbAvd-7 in the presence and absence of ligands was analyzed using an automated VP-Capillary DSC System (Malvern, Microcal Inc.) essentially as described in [73]. Protein samples in the sodium phosphate buffer (50 mM, pH 7) containing 650 mM NaCl were degassed prior to the measurement. The protein concentration in the cell was 6.4 μM, and the molar concentration of the ligands (D-biotin (Biochemica, Fluka) and progesterone (Steraloids Inc., USA)) were three times higher (Fig 6).
Background: DSC measures the heat that a sample takes up or gives off during a temperature scan.

Data set [5] in a line: Differential scanning calorimetry with progesterone. The settings on record: DSC, ligand three times the protein concentration. It is filed as binding. The procedure:
as §1

Data set [6] can be described thus: Differential scanning calorimetry with biotin. The data set is classed as binding. The settings on record: DSC, ligand three times the protein concentration. On the procedure: as §1
Data set [7] deals with the molecule itself. Briefly: crystal structure; co-crystallised with progesterone, sitting drop vapour diffusion, 21°C; 2.80 Å; two monomers in the asymmetric unit, tetrameric biological unit.

As usually defined, the Kd is the concentration at which binding is half-saturated. As for `O=C(O)c1ccccc1N=Nc1ccc(O)cc1` [HABA, 2-(4’-hydroxybenzene)azobenzoic acid], the Kd on Avd was approximately 6000 nM.

B1: hbAvd-4: antidin S16A, Y33F, T40P, F72A, S73Y, S75Y, N118A; from AvLib-5, hydrocortisone panning (protein, UniProt P02701 25-152, looked up, variant S16A Y33F T40P F72A S73Y S75Y N118A)
Avidin: ARKCSLTGKWTNDLGANMTIGAVNSRGEFTGTFITAVTAPSNEIKESPLHGTQNTINKRTQPTFGFTVNWKAYEYTTVFTGQCFIDRNGKEVLKTMWLLRSSVNDIGDDWKATRVGIAIFTRLRTQKE
Take B1: in data set [1], the equilibrium dissociation constant (Kd) was determined as 39 nM.

B2: sbAvd-7 antidin (engineered chicken avidin) (designed binder)
chain: ARKCSLTGKWTNRMNHNMTIGAVNSRGEFTGTYIASLNATSNEIKESPLHGTQNTINKRTQPTFGFTVNWKFSESTAVFTGQCFIDRNGKEVLKTMWLLRSSVNDIGDDWKATRVGINIFTRLRTQKE
notes: selected from the phage display library AvLib-4 (template sbAvd-1); Subcloned with the OmpA signal peptide and a C-terminal 6xHis-tag into pET101/D; source: E. coli BL21-AI or OverExpress C43(DE3), purified (Ni-NTA)
Broadly, the stoichiometry N is a count of units in the complex or per binding partner. Consider B2, for which the “stoichiometry N” value in data set [2] stood at 4.

B3: sbAvd-2: antidin with RMNH at 13-16 and ATVN at positions 35-38; from AvLib-3 (protein, UniProt P02701 25-152, looked up, variant D13R L14M G15N S16H T35A A36T T38N)
Avidin: B2 chain with S36T, L37V, A77T
Take B3: in data set [3], the Kd was 111 nM.

B4: sbAvd-4: antidin with RMNH at 13-16 and PYLS at positions 35-38; from AvLib-3 (protein, UniProt P02701 25-152, looked up, variant D13R L14M G15N S16H T35P A36Y V37L T38S)
Avidin: B2 chain with A35P, S36Y, N38S, A77T
For B4, the dissociation constant (Kd) in data set [3] was 135 nM.

B5: sbAvd-8: antidin with RMNH at 13-16, Y33F, A36Y, V37S, T38Y and T77A; from AvLib-4 (protein, UniProt P02701 25-152, looked up, variant D13R L14M G15N S16H Y33F A36Y V37S T38Y T77A)
Avidin: B2 chain with Y33F, A35T, S36Y, L37S, N38Y
Take B5: the dissociation constant (Kd) in data set [1] was determined as 11 nM.

B6: sbAvd-9: antidin with RMNH at 13-16, YYLP at 35-38 and T77A; from AvLib-4 (protein, UniProt P02701 25-152, looked up, variant D13R L14M G15N S16H T35Y A36Y V37L T38P T77A)
Avidin: B2 chain with A35Y, S36Y, N38P
For the molecule B6, the dissociation constant (Kd) in data set [1] was determined as 13 nM.

B7: sbAvd-2 (I117Y): sbAvd-2 with stabilizing mutation I117Y; co-crystallized with progesterone, PDB:5LUR (protein)
chain: B2 chain with S36T, L37V, A77T, I117Y
Turning to B7, the Kd in data set [3] is 180 nM.

B8: sbAvd-7: antidin with RMNH at 13-16, ASLN at 35-38 and T77A; from AvLib-4, progesterone panning (protein)
chain: B2 chain
modifications: left off: 6xHis, C-terminal, state not stated
notes: antidin with RMNH at 13-16, ASLN at 35-38 and T77A; from AvLib-4, progesterone panning
Broadly, the Tm is the temperature at which the thermal transition is half complete. With B8, the Tm in data set [4] came out at 85.84 °C. In addition, the ΔTm with progesterone in data set [5] was 10.23 °C. For the same molecule, in data set [6], the ΔTm with biotin worked out at 0.27 °C.

B9: sbAvd-5: antidin with RMNH at 13-16 and VPHP at positions 35-38; from AvLib-3 (protein, UniProt P02701 25-152, looked up, variant D13R L14M G15N S16H T35V A36P V37H T38P)
Avidin: B2 chain with A35V, S36P, L37H, N38P, A77T
In the case of B9, the dissociation constant (Kd) in data set [3] was 108 nM.

B10: sbAvd-6: antidin with RMNH at 13-16 and VSSN at positions 35-38; from AvLib-3 (protein, UniProt P02701 25-152, looked up, variant D13R L14M G15N S16H T35V A36S V37S T38N)
Avidin: B2 chain with A35V, L37S, A77T
With B10, the Kd in data set [3] was 117 nM.

B11: sbAvd-2 (I117Y) antidin (engineered chicken avidin) (designed binder)
chain: B2 chain with S36T, L37V, A77T, I117Y
notes: position 37 stays V; Crystallised with progesterone; also called sbAvd-2 (I117Y) mutant
For B11, the “stoichiometry N” value in data set [7] stood at 4.
